Measured values reported in paper PMC2626662.

Columns and labels:
Assay in all cases: SPR
DM1 TCR (human) = molecular target: DM1 TCR (human)
[1] = molecular target: HLA-B*4402^EENL (human | not stated | Epstein-Barr virus)
[2] = molecular target: HLA-B*4403^EENL (human | not stated | Epstein-Barr virus)
[3] = molecular target: HLA-B*4405^EENL (human | not stated | Epstein-Barr virus)

Row | Kd (DM1 TCR (human)) [µM] | Kd [1] [µM] | Kd calc [1] [µM] | koff [1] [s⁻¹] | Kd [2] [µM] | Kd calc [2] [µM] | koff [2] [s⁻¹] | Kd [3] [µM] | Kd calc [3] [µM] | koff [3] [s⁻¹] | Substance
1 | 1 |  |  |  |  |  |  |  |  |  | HLA-B*4405^EENL (from UniProt P61769 21-119) (peptide-MHC)
2 |  | 6.3 | 14 | 0.2 | 9.4 | 16 | 0.25 | 0.3 | 0.23 | 0.02 | DM1 TCR
